Laboratory results: the DeepSol protein solubility set

Test: soluble on expression in E. coli; label from the status in PepcDB or PDB records
For “SRIVAPPKNYPDSSQHEWVSLTRISKNMQLAVIATEDQKFPHHYGVDFESLFDVISEAGDHGPSRGASTITQQAAKNVFLFPSHSYVRKAYELYFALLMELMWSKERILEVYLNVVEFGPGIYGAEAAAQNYFGVSAKQLSKWQAARLAVVLPNPYRIKVYPQSDYTARRTRWAMNQMSNLGSVQL”, the “soluble on expression in E. coli” value was “not soluble”.
In the case of “ISTEEAAPDGPPMDVTLQPVTSQSIQVTWKAPKKELQNGVIRGYQIGYRENSPGSNGQYSIVEMKATGDSEVYTLDNLKKFAQYGVVVQAFNRAGTGPSSSEINATTLE”, the “soluble on expression in E. coli” value is reported as “soluble”.
In the case of “MSFSERLLAAWYQGHPALALLRPLEALYRRVANGRRADFLSGRKPAYRAPLPVLVVGNITVGGTGKTPMILWMIEHCRARGLRVGVISRGYGARPPTTPWRVRAEQDAAEAGDEPLMIVRRSGVPLMIDPDRPRALQALLAEEQLDLVLCDDGLQHYRLARDLELVLIDAARGLGNGRCLPAGPLREPAERLESVDALLYNGADEDPDGGYAFRLQPTALINLQSGERRPLEHFPAGQEVHALAGIGNPQRFFRTLEALHWRAIPHAFPDHATYTAAELAFSPPLPLLMTEKDAVKCRAFAAADWWYLAVDAVPSPAFVAWFDARLEH”, the “soluble on expression in E. coli” value is reported as “not soluble”.
With “MLSIIGQKTLTIMYWTLELASKLEDAPWPATKDELIDYAQRSGAPLEVIENLQEMEDEGEIYESIEDIWPDYPSKEDFFFNEEEY” the “soluble on expression in E. coli” value was “not soluble”.
With “MGHHHHHHSHPSSPDSLHYLSPTGVNEYLMALWSVGSVVQDYDSDKLFPAFGFGAQVPPDWQVSHEFALNFNPSNPYCAGIQGIVDAYRQALPQVRLYGPTNFAPIINHVARFAAQAAHQGTASQYFMLLLLTDGAVTDVEATREAVVRASNLPMSVIIVGVGGADFEAMEQLDADGGPLHTRSGQAAARDIVQFVPYRRFQNAPREALAQTVLAEVPTQLVSYFRAQGWAPLKPLPP” the “soluble on expression in E. coli” value was “not soluble”.
In the case of “MSLEALSSYQQRNNQQLDQWLNRIPFQTLPLIEAMRYGLLLGGKRARPYLVYITGQMLGCELSDLDTPASAVECIHAYSLIHDDLPAMDDDELRRGKPTCHIQFDEATAILTGDALQTLAFTILAEGDLSAAGETQRVAMLQALAEASGAQGMCLGQALDLAAENRLISLEELETIHRNKTGALMRCAIRLGALAAGEKGRAMLPHLDRYAEAVGLAFQVQDDILDIISDTETLGKPQGSDQELNKSTYPALLGLEGAQQKAHTLLQEALLALEAIPYNTEHLEEFARYVVERKNEGHHHHHH”, the “soluble on expression in E. coli” value is reported as “soluble”.
In the case of “MGSSHHHHHHSSGENLYFQGMTDPAPPPTALAAAKARMRELAASYGAGLPGRDTHSLMHGLDGITLTFMPMGQRDGAYDPEHHVILINSQVRPERQRFTLAHEISHALLLGDDDLLSDLHDEYEGDRLEQVIETLCNVGAAALLMPAELIDDLLTRFGPTGRALAELARRADVSATSALYALAERTAPPVIYAVCALSRQEDEGEGGGAKELTVRASSASAGVKYSLSAGTPVPDDHPAALALDTRLPLAQDSYVPFRSGRRMPAYVDAFPERQRVLVSFALPAGRSEPDADKPEAPGDQS”, the “soluble on expression in E. coli” value is reported as “soluble”.
For “MKAREILEILNAELLTGEENLDMEFNAACGSDLMSDVMAYVKENVVLLTGLVNPQVIRTAEMMDIKLVVFIRGKRPEEKIIQMAKEKGIAIMTTNDPMFIACGKLYSAGITERGVWD”, the “soluble on expression in E. coli” value was “not soluble”.
In the case of “MKRHIAMAAGALALALGAQAAHAGPTLDAVKKKGFVQCGLTDGVAGFSATNSKGEWEGMDVDICRAVAAAVFGDAGKFKGTALSTQQRFTALQSGEVDVLLRTVTLTQTRDTSLGLAAVAASFYDGQGVLVRKALGVKSAKELDEATICVQPGTTTELNLADWFRANGIKFTPVVIDKVTEVVRAFESGRCDAFTDDASQLAAVRATQVAKPDDFEILPERFSKEPLGPMVRQGDENWLGIVRWTLFALMEAEEYGITQQNVDEMLKSKNPNVLRILGVTPGAGKNMGLDEKWAYNAIKAVGNYSQIFERNVGKDSRLGLQRGVNALWSQGGAMYPWPIR”, the “soluble on expression in E. coli” value is reported as “not soluble”.
In the case of “MSLTPYNVARKRGELKYLLLTESQFDGGMMLRFVLRSETKLTQLRAALPWLRAQLPQLRVITANIQPVHMAIMEGETEIYLTDQQALAERFNDVPLWIRPQSFFQTNPTVASRLYATARDWVGQLPVRHMWDLFCGVGGFGLHCATPQMQLTGIEIAPEAIACAKQSAAELGLTRLHFQALDSTQFATAQGETPDLVLVNPPRRGIGKPLCDYLAQMAPRFIIYSSCNAQTMAQDIRHLPNYRIQRVQLFDMFPHTAHYEVLALLRRSEGHHHHHH”, the “soluble on expression in E. coli” value is reported as “not soluble”.
With “MAEVKKSNAPEFKGAETLYLIDIPQPDGKTTKTVRFFNQTSGSRSIEAGEIELKTKDKSGSDYGDVTQSASIEGICTEGDEGLDYVEEAILNKVLVRIHEVNLRSATASEFKVKSGTYMLNSLELSHENEEYSKYSIGLKLNGKISKGTLNKVPEGAPSGDVATPGTE” the “soluble on expression in E. coli” value was “not soluble”.
For “MSLKRIDRIYMYVKEKTAHLTKAEYDQGVTTQEIAEVLGIQRTNSSKDLNQLVREGKLIKTDGRPVRYIYQTLVTHVKPVTKHVVSYKETPVSEEKNTLQIDTKDIFAKIIGANGSMKNSVEQAKAAILYPPRGLNCLITGPTGSGKTYFAHAMYHFAKAHHVIDEETELIVFNCADYANNPELLMSHLFGYAKGAFTGADEEKMGIIDQADGGMLFLDEIHRLPPEGQEMIFYFMDHGTYSRLGETTKSHEANVRIVGATTEDPGSSLLETFVRRIPINIKLPAFEKRPANEKVDLVKIMIAHEANRTQRKISLTEDVAKALIGSVTYGNIGQLKSNIQLVCARGFLNHMQSPEISITIDDLTEGIRSGLIQLASNRSAMAELSKILEPKITVAPNEGHHHHHH”, the “soluble on expression in E. coli” value was “soluble”.
With “MGSDKIHHHHHHMPRPRRTQISLEDTPYYHCCSRVVRRAFLCGDDTYSGKNYDHRRTWVESLLFELEAIFAIDVAAFAVMSNHLHLVLRVDIDSANGWTDREVLEQWHKLFKGDELTQKFAKGELVEAYEVSRLKHSIAIYRSRLCDISWFMRCLNEPIARQANQEDNCTGRFWEGRFKSQALLDEAAVLACMTYVDLNPIRAQLADTPEQSDHTSIQLRIRAALKGEQPSNLLPFIANECDNQPNGIAFSLMDYLQLVDDTGRIIRNDKRGYISESSAKILTRLNIPHDNWLKLTTDFGKLFHGPVGTLQELTDYCEHLEKRRRHFAASCQHFKSN” the “soluble on expression in E. coli” value was “not soluble”.
In the case of “MFERVREDIQSVFHRDPAARNALEVLTCYPGLHAVWLHRLAHGLWTSGWKWLARLVSNFGRWMTGIEIHPGARIGRRFFIDHGMGIVIGETAEIGDDVTLYQGVTLGGTTWNKGKRHPTLGNNVVVGAGAKVLGPFTVGEGAKVGSNAVVTKEVPPGATVVGIPGRIIMREDSEQQAKRQAMAEKLGFDAYGVSQDMPDPVARAIGQLLDHLQAVDGRLEGMCQALTALGSDYCAKDLPVLREEDFAGVKDEDGNPAALEHHHHHH”, the “soluble on expression in E. coli” value is reported as “soluble”.
In the case of “MRITDLLSKDVMIMSLQATTKEAAIDEMIASLKSNGKINDEVLFKEAIMNREAQSSTGVGEGIAMPHAKTKAVNEPTVVFAKSEKGLDYNSLDGQPAHLFFMIAAPDGANATHLETLAALSRLLVHPAFVQSLKDAKTPDDVITLFNNEQGDAEE”, the “soluble on expression in E. coli” value is reported as “not soluble”.
With “MEIKEITIIGGYDKNGNPEPVREVTIKRGEIVGVVGPTGSGKSNLISDIEQLAQGDTISKRRILVNGEVPPIEMRRDPKKRRIAQLSQNMNFLADMTVEEFILMHAKSRGVYRENIVDEVIELANRLTGEPIKKDYNLTILSGGQSRSLMVADVAVISDSPIVLIDEIENAGIKKHEALELLAGYGKIVLVITHDPVLALMTDRRIVMRNGGMQKIIETTEEEKEISRKINEVDNWLLSLREKIRFGERLTHEDISLMVKG” the “soluble on expression in E. coli” value was “soluble”.
For “MSTLQRRRVNRADSGDTSSIHSSANNTKGDKIANIAVDGDDDNGTNKKIAYDPEESKLRDNINIPTLTLMEEVLLMGLRDREGYLSFWNDSISYALRGCIIIELALRGKIRILDDSARKRFDLSERLIEVIDSSKTGEVLLDETLQLMKNDEPLSISNWIDLLSGETWNLLKINYQLKQVRERLAKGLVDKGVLRTEMKNFFLFDMATHPIADASCKEAIKRRVLSVLVSRNMELSYNEYFPETTSFKIIRTLALICGSYGANVLENVLTTLEYEKRDKAISRAEEIMAQFSQYPFDLEKETELGVSVNLNKEVKEEIENNPGHDLQLEVIAGVFEVFSRMDMLL”, the “soluble on expression in E. coli” value was “soluble”.
In the case of “MRPLDENLRTSAASRPAQSLSVRGQPEAESGAFGEAIADAGRRRTQGQGGQTSADDARRDSVANGGNASAVPKADGFGADVPASTADAASPDARPAYERAIITRDQAAKRLQHSHPAGTRHLSQGREDGGEEIAQPAERAVVRSRETVQTSRDSVDEASGVTAREGGENGDPASGTVSDLLSMLTGAAPAVAAASQPEGRAKPASAVRDGSDGPAKAVGGISPAVPDGEHPQTGEGTGGSEPDRLFRFARADGKGQAVSMNISRDGERAVVENSRSSVKPGVETVTVLEARRYLGLAVNENATSVTTAIAGDSGWAEALQSSAATTKPEAWSQAGKTLNTLKIQMHPVDLGMVTATLRLKDDELQVDLKVETGEAFRQLRDDQSEMVKALRAQGFAVDQVNIVFNGGGDSASGGGGQSQAQAQLGYEGRERAGDDGQGRQPRDGGRAATERWAGNDATDDVPDGAERSRAGHVYM”, the “soluble on expression in E. coli” value is reported as “not soluble”.
For “MVRVYIGRFPNRASDRDAEHFFCDYGKLPDAIMKNVFGVGCKDFQDQSDADDIICDEQTRILLVEKLKNAKEYPTINHD”, the “soluble on expression in E. coli” value was “not soluble”.
With “MPEVRAERYIPAPPERVYRLAKDLEGLKPYLKEVESLEVVAREGARTRSRWVAVAMGKKVRWLEEEEWDDENLRNRFFSPEGDFDRYEGTWVFLPEGEGTRVVLTLTYELTIPIFGGLLRKLVQKLMQENVESLLKGLEERVLAASS” the “soluble on expression in E. coli” value was “soluble”.
In the case of “MSLKYEGSISINATKDQILKLLDNPDQVAQCFPGIKSFSKEGEEYKVVGVTGIGFIKGEYRANVRFEKIDDNKRKIIAKGTGMNSNVDIDAIAEALDGKINYSADVKVAGVLASVGARLMGSAVEKIINDLFNCIKERVIKEGHHHHHH”, the “soluble on expression in E. coli” value is reported as “soluble”.
With “STGNAGEWCLMESDPGVFTELIKGFGCRGAQVEEIWSLEPENFEKLKPVHGLIFLFKWQPGEEPAGSVVQDSRLDTIFFAKQVINNACATQAIVSVLLNCTHQDVHLGETLSEFKEFSQSFDAAMKGLALSNSDVIRQVHNSFARQQMFEFDTKTSAKEEDAFHFVSYVPVNGRLYELDGLREGPIDLGACNQDDWISAVRPVIEKRIQKYSEGEIRFNLMAIVSDRKMIYEQKIAELQRQLAEEPMDTDQGNSMLSAIQSEVAKNQMLIEEEVQKLKRYKIENIRRKHNYLPFIMELLKTLAEHQQLIPLVEKAKEKQNAKKAQETK” the “soluble on expression in E. coli” value was “soluble”.
In the case of “MARIRVQFICQNCGTVHSRWAGKCNSCGEWNSLIEENANSGIGTGPKQNVHKGRVVALTSLSGNIEDAPRIHSGIAELDRVTGGGFVRGSVLLVGGDPGIGKSTLLTQTAAALSRKGHHVIYVSGEEAVAQICLRAQRLDAANTKVKLAAETNVEDILATLSEHKNLDMVIIDSIQTLWSDAADSAPGTVTQVRISAQAMIRFAKKTGAAVVLVGHVTKEGQIAGPRVVEHMVDAVLYFEGEGGHHYRILRTVKNRFGPTDEIGVFEMSDKGLREVINPSELFLGERNEKAPGAAVFAGMEGTRPILVEIQALVAPSSLGTPRRAVVGWDGNRLSMILAVLEAHCGVRFGQHDVYLNVAGGYRISEPAADLAVAAALVSSLTNIPLPTEYVYFGEISLSGAIRAVSHSAQRINEAQKLGFQGSVQPTTTTKMIKLPTFQQKTFSELSELIAALATGK”, the “soluble on expression in E. coli” value is reported as “not soluble”.
